Experimental findings from paper PMC4167235 are described below.

The target of the test is secretory phospholipase A2 (sPLA2) from Crotalus durissus terrificus (Crotalus durissus terrificus) (UniProt P62022). The experiment in a line: MALDI-TOF mass spectrometry.

In the case of “secretory phospholipase A2 (sPLA2) from Crotalus durissus terrificus (from UniProt P62022 17-138) (enzyme)”, the stoichiometry N turned out to be 2.
